Assay results as given in US20160340659A1, “ACTIN BINDING PEPTIDES AND COMPOSITIONS COMPRISING SAME FOR INHIBITING ANGIOGENESIS AND TREATING MEDICAL CONDITIONS ASSOCIATED WITH SAME” (YISSUM RESEARCH AND DEVELOPMENT COMPANY OF THE HEBREW …, priority 2014, published 2016).

Key:
[1] = target: T1, G-Actin from rabbit muscle (Oryctolagus cuniculus, UniProt P68135); experiment: ELISA actin binding assay (solid-phase, immobilized actin); settings: immobilized G-actin 500 ng/well
T1 construct: G-Actin from rabbit muscle; purchased Sigma-Aldrich, St Louis, Mo; host or cells: rabbit muscle (tissue-derived)
Procedure: Peptides corresponding to a variety of amino acid sequences in the region of human RNASET2 comprising helix 5 and helix 6 were synthesized and assayed for actin binding in an ELISA actin binding assay.
Solid-phase ELISA for RNASET2 peptide binding to immobilized actin was performed as modified from Mejean 1987 (Biochem. J. 244: 571-577) and Mejean 1992 (Eur. J Biochem. 209: 555-562). All steps were conducted at 37° C. Immuno-96 Microwell™ solid plates (Thermo Fisher Scientific, MA) coated with 500 ng/well of G-Actin from rabbit muscle (Sigma-Aldrich, St Louis, Mo.) in 100 ul of 0.05 M carbonate buffer, pH 9.5 (Sigma-Aldrich, Mo), incubated for 1 h and washed with 250 ul/well Tris Buffered Saline (TBS) (Sigma-Aldrich). The wells were blocked with 3% bovine serum albumin (BSA, Sigma-Aldrich) in 200 ul/well TBS for another 1 hour and washed with 250 ul/well TBS. The candidate peptides are then added at various concentrations (for example, serial dilutions giving 500, 250 or 125 ng/well) in 100 ul/well Tris Buffered Saline (TBS), incubated for 1 hour and washed 3 times with 250 ul/well TBS containing 0.05% Tween®20 (TBST, Sigma-Aldrich). Anti-T2 RNase (rabbit anti-rhtrRNASET2, Anilab, Israel, whole serum or antiserum) was then added, incubated for 1 hour and the plates washed 3 times with 250 ul/well TBST. Labeled second antibody [peroxidase-conjugated affinity pure goat-anti rabbit IgG (Jackson, Pa.)] was added at a dilution of 1:10:000 in 100 ul/well TBS, incubated for 1 hour and the plates washed twice with 250 ul/well TBST. After an additional wash with 250 ul/well TBS, 1-Step Ultra TMB-ELISA (TMB-3,3′,5,5′ Tetramethylbenzidine) (Thermo-Scientific) was added (100 ul/well) and after 15-25 min of incubation, the reaction was read at A650 using Infinite F50-TECAN ELISA READER (TECAN, Austria). Each assay was performed in triplicates.

[2] = target: T2, Rabbit muscle actin (Oryctolagus cuniculus, UniProt P68135); experiment: Peptide array screen for actin binding; settings: peptides on cellulose membrane; 5 μM actin; densitometry relative to K108-K133
T2 construct: Rabbit muscle actin (A2522, Sigma-Aldrich, St Louis, Mo.); purchased Sigma-Aldrich, St Louis, Mo; A2522; host or cells: rabbit muscle (tissue-derived)
Procedure: The peptides were acetylated at their N-termini and attached to a cellulose membrane via their C-termini through an amide bond. Peptide array (INTAVIS Bioanalytical Instruments AG, Koeln, Germany).
The array was immersed in 5 ml blocking solution (TBST containing 2.5% milk) for 4 hours with shaking, then washed once with blocking solution (30 sec.) and twice with TBST (5 min. each). 5 μM actin were dissolved in the blocking solution (˜1:3), and incubated with the array at 4° C. with shaking overnight. After washing with TBST (1×30 sec. and 2×5 min.) the array was incubated first with rabbit anti actin antibody diluted 1:100 in blocking solution for 4 hours at room temperature followed by washings three times with TBST (1×30 sec. and 2×5 min.). The array was then incubated with horseradish peroxidase-conjugated goat anti rabbit IgG antibody diluted 1:10,000 in blocking solution at room temperature for 2 hours followed by washing with TBST (1×30 sec. and 2×5 min.). Immunodetection was performed using chemiluminiscence with ECL reagents.
The modifications included an alanine scan, truncations and systematic replacements of each residue in each peptide by the corresponding D-amino acid residue and N-methylated residue, C terminal truncations and N terminal truncations. The array was screened for binding the actin protein.

[3] = target: actin (Oryctolagus cuniculus, UniProt P68135); experiment: Surface plasmon resonance (BIAcore) of actin binding; settings: actin on CM5 chip, 25° C.
Procedure: SPR was performed on a BIAcore 3000 instrument (BIAcore, Uppsala, Sweden). Actin was diluted in 100 mM CH3COONa pH 4.6 to a final concentration of 20 μg/ml (200 μl total) resulting in ˜1 ng immobilized actin on a CM5 BIAcore sensor chip (GE Healthcare Bio-Sciences AB) using the standard BIAcore amine coupling chemistry protocol. The CM5 chip allows four separate flow cells to be operated in the BIAcore 3000 instrument used in these experiments. Coupling is achieved by activating the surface of the sensor chips with equal volumes of 50 mM N-hydroxysuccimide (NHS)/200 mM Nethyl-N-(3-[…])-carboiimide (EDC) (BIAcore, AB, Uppsala, Sweden) to form activated carboxyl groups. An actin solution […] was run over the chip for 5 min at a rate of 10 μl/min, allowing the amine groups on the protein to react with the activated esters. In the final stage of immobilization, the surface was blocked by 1M ethanol amine, pH 8.0. The binding assay was performed by injecting the hRNASET2, trT2-49, trT2-49m or peptides solutions in running buffer (HBS—10 mM Hepes, 150 mM Sodium Chloride, 3 mM EDTA, 0.005% Polysorbate 20) at 5 different concentrations at a flow rate of 10 μl/min at 25° C. Injections were performed simultaneously over all four channels and blank surface (a plain dextran matrix, channel 1) was used as control. The net signal was obtained by subtracting the blank signal from the signal of the immobilized surface. The association phase for protein or peptides binding to actin was followed for 4 min, and dissociation phases were monitored for 3 min. Surface regeneration between consecutive binding cycles included a 1 min injection of 1 mM NaOH. The response was monitored as a function of time (sensorgram) at 25° C. Multi-concentration data were globally fit using BIA evaluation 3.2 software.
The strength of a two molecule interaction is characterized by the equilibrium dissociation (binding) constant KD=[P][L]/[PL], where [P] is the concentration of free protein (or peptide), [L] the concentration of ligand and [PL] the concentration of the complex. […]

[4] = test system: chick Chorio-Allantoic Membrane (CAM); experiment: Ex ovo CAM angiogenesis assay; format: in vivo, chicken; settings: 3 μg on paper disk daily for four days from day 8; compared to PBS control
Procedure: In this assay, in-vivo angiogenesis is assessed on live chick embryos grown in petri dishes. Fertilized eggs are cracked into a petri dish after a few (e.g. 3) days incubation at appropriate temperature (e.g. 37° C.) and humidity. In the following days, the embryos developed a vascular network, which can then easily be exposed to any treatment or combination of treatments, for example, via delivery onto absorbent disks placed on/about the developing vascular regions. Angiogenesis is scored by periodically (e.g. 1×/day, 2×/day, 1×/2 days, 1×/4 days, etc) counting the number of blood vessels around the disk.
Fertilized chicken eggs were incubated horizontally at 37° C. and humidity of 60-62% and cracked into Petri dishes at embryonic day 4. Incubation was continued under the same conditions. […] Treatment was given every day for four days, then, the number of blood vessels around the treated disks was counted.

[5] = test system: HUVEC; experiment: HUVEC tube formation assay on Matrigel; format: cell-based, human; settings: angiogenin or VEGF induced; 2 μM peptide
Procedure: FIGS. 6A-6D illustrate in-vitro inhibition of angiogenesis in the HUVEC model by T2 peptides. HUVEC cells plated on Matrigel™ were exposed to 2 μM of T2 peptides A103-Q159 (SEQ ID NO: 60), K108-K133 (SEQ ID NO: 57) or K108-L123 (SEQ ID NO: 67), in addition to 1 μg/ml of angiogenin or VEGF as the angiogenic agent, as indicated. Control wells received PBS. FIG. 6B-Results were assessed by imaging software, and quantified, and expressed relative to tube formation with angiogenin or VEGF alone (100%) Column 1=angiogenin, column 2=angiogenin+SEQ ID NO: 60, column 3=angiogenin+SEQ ID NO: 57, column 4=angiogenin+[…], Column 5=VEGF, column 6=VEGF+SEQ ID NO: 60, column 7=VEGF+SEQ ID NO: 57, column 8=VEGF+[…]. FIGS. 6C and 6D illustrate the inhibitory effect of truncated human T2 polypeptide trT2-49m (SEQ ID NO: 129) on angiogenin and VEGF induced HUVEC tube formation. Note the significant inhibition of HUVEC tube formation by all of the T2 peptides assayed, and in particular, K108-K133 (SEQ ID NO: 57);
HUVEC (CC-2519)(fresh or commercially provided) are maintained in M199 rrrediurn supplemented with 20% FCS, 1% glutamine, 1% antibiotic-antimycotic solution, ECGF, and heparin, plated in a 96-well plate (14×10^3 cells/well) previously coated with growth factor-depleted Matrigel™ (BD Biosciences), in M199 medium containing 5% FCS and 0.005% ECGF. The wells are supplemented with candidate T2 RNase peptides or PBS, and angiogenic growth factors (1 μg/ml angiogenin, bFGF or VEGF) to a final volume of 120 pl. Plates are incubated (overnight), photographed and the extent of tube formation (angiogenesis) assessed.

SEQ ID NO: 63: peptide representing amino acids 103-141 of RNASET2 (ALNSQKKYFGRSLELYRELDLNSVLLKLGIKPSINYYQV)
actin binding on ELISA [1]: moderate

KKYFGRSLELYR [SEQ ID NO: 62]
actin binding of immobilized peptides [2]: significant actin binding

SEQ ID NO: 1: mature full length human RNASET2, T2 family ribonuclease
Ka × 10^3 [3]: 1.44 ×10^3 1/Ms | inhibition of angiogenesis (number of blood vessels around disk) [4]: effective in inhibiting angiogenesis

SEQ ID NO: 67: peptide K108-L123 of human RNASET2, 16 aa
inhibition of HUVEC tube formation [5]: unable to inhibit tube formation

LYREL [SEQ ID NO: 132]
actin binding of immobilized peptides [2]: significant actin binding

KKYFGRSLEL [SEQ ID NO: 131]
actin binding of immobilized peptides [2]: significant actin binding
